In patent US20040106545A1 (MCGILL UNIVERSITY, published 2004):
Where two headings read alike, the source gives them in different places. Values belong to the binder of their own block, whether it stands above or below them. Positions of bridges follow the written chain, without caps; N, C: chain ends.

How the values were obtained:
Experiment in all cases: cell-based or functional assay
[1] = target: T1, chick N-cadherin expressed on transfected 3T3 cells (chick, UniProt P10288 165-912)
T1 sequence (looked up): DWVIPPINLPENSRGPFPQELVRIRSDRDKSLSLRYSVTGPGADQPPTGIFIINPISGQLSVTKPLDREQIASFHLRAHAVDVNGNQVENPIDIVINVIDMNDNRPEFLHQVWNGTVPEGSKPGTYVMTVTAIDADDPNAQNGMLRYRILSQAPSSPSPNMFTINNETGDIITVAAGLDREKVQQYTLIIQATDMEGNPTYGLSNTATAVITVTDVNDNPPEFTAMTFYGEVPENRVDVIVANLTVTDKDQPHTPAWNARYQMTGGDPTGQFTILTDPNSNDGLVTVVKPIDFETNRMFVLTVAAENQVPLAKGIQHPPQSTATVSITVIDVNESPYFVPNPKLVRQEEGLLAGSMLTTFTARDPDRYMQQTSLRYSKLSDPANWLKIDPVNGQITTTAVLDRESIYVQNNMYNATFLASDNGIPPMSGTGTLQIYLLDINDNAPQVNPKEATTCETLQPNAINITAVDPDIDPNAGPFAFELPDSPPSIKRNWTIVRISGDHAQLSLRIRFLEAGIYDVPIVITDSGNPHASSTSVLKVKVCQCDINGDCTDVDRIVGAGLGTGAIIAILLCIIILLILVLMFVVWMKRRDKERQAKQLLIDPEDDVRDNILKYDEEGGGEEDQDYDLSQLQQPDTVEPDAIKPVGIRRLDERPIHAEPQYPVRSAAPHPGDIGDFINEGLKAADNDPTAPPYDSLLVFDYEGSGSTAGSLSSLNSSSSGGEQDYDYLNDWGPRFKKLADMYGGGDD

[2] = target: T1, chick N-cadherin expressed on …; remark: listed apart in the source
[3] = target: human L1 expressed on transfected 3T3 cells (human, UniProt P32004 20-1257)
Sequence of human L1 expressed on transfected 3T3 cells (P32004 20-1257): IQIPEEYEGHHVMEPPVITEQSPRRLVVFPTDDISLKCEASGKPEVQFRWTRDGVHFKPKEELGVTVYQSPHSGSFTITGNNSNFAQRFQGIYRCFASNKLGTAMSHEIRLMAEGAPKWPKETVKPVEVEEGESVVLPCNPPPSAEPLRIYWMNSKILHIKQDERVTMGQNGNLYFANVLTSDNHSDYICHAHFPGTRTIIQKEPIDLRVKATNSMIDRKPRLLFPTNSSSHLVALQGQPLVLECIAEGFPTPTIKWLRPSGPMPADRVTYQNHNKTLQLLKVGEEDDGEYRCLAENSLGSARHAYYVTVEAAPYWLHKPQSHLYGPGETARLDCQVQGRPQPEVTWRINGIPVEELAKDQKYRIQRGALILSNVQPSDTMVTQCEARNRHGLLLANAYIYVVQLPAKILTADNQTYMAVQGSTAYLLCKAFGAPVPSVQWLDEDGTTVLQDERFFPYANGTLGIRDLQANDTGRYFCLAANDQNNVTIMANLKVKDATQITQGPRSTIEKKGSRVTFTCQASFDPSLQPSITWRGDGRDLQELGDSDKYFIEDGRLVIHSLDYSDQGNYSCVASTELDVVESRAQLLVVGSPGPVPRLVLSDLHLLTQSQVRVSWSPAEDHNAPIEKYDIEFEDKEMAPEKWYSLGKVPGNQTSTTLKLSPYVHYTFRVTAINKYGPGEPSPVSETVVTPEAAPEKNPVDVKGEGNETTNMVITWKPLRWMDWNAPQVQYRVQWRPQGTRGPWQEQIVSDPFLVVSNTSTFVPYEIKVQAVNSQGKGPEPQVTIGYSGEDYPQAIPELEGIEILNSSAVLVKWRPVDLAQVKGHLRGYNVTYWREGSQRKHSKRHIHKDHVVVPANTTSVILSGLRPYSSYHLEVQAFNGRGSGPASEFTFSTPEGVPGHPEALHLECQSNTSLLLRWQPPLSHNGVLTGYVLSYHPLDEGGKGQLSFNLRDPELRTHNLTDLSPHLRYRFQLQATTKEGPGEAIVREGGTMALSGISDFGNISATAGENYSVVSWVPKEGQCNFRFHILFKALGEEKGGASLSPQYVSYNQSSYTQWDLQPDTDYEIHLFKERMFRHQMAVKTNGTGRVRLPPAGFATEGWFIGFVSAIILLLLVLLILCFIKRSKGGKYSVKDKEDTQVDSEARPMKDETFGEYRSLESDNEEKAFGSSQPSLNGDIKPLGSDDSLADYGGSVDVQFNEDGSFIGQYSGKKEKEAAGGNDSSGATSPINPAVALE

[4] = target: T1, chick N-cadherin expressed on …; remark: listed apart in the source
[5] = target: T1, chick N-cadherin expressed on …; remark: listed apart in the source
[6] = target: N-cadherin expressed on transfected 3T3 cells (Examples 2 and 21)
[7] = target: T2, E-cadherin on Madin Darby canine kidney (MDCK) cells (canine (MDCK cells), UniProt F1PAA9 157-885)
T2 sequence (looked up): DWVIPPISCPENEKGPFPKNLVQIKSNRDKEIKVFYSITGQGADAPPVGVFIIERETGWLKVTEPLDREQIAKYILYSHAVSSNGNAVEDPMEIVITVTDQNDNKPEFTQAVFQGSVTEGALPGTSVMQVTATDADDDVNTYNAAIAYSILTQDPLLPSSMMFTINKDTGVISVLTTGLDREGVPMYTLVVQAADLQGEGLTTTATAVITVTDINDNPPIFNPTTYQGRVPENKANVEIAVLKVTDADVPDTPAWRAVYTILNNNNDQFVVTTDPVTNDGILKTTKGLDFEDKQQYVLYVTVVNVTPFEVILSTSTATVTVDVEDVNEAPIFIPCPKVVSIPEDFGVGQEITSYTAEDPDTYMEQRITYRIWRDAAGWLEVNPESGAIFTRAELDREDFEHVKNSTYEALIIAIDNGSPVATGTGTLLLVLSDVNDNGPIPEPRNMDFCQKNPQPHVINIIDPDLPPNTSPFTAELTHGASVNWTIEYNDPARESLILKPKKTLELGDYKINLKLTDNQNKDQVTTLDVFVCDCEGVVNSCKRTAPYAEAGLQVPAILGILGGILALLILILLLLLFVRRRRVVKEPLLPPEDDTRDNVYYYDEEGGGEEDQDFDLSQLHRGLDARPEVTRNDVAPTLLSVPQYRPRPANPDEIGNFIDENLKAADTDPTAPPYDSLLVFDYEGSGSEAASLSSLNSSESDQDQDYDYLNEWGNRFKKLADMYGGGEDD

[8] = target: T1, chick N-cadherin expressed on …; remark: listed apart in the source
[9] = target: T2, E-cadherin on Madin Darby canine kidney …; remark: listed apart in the source
[10] = target: T1, chick N-cadherin expressed on …; remark: listed apart in the source

Percent Inhibition of N-cadherin dependent neurite outgrowth (peptide 250 µg/ml) [1]: 10.6%
B1: N-Ac-YCHAVC-NH2 (peptide)
peptide: Ac-YCHAVC-NH2
modifications: disulfide 2-6
SMILES: CC(=O)N[C@@H](Cc1ccc(O)cc1)C(=O)N[C@H]1CSSC[C@@H](C(N)=O)NC(=O)[C@H](C(C)C)NC(=O)[C@H](C)NC(=O)[C@H](Cc2c[nH]cn2)NC1=O

% inhibition of N-cadherin dependent neurite outgrowth (peptide 250 µg/mL) [5]: 11% | % Inhibition of neurite outgrowth, 250 µg/mL (rat neurons) [6]: 0% | EC50, decrease of electrical resistance across MDCK cell monolayer [7]: 20 µM
Binder: Ac-CSHAVC-NH2 (disulfide 1-6 (inferred)) [N-Ac-CSHAVC-NH2]

% inhibition of N-cadherin dependent neurite outgrowth (peptide 250 µg/mL) [5]: 34.4% | % Inhibition of neurite outgrowth, 250 µg/mL (rat neurons) [6]: 0%
Binder: Ac-CHAVSSC-NH2 (disulfide 1-7 (inferred)) [N-Ac-CHAVSSC-NH2]

EC50, decrease of electrical resistance across MDCK cell monolayer [9]: 490 µM
B3: N-Ac-S-CHAVC-NH2 (peptide)
peptide: Ac-SCHAVC-NH2
modifications: disulfide 2-6
SMILES: CC(=O)N[C@@H](CO)C(=O)N[C@H]1CSSC[C@@H](C(N)=O)NC(=O)[C@H](C(C)C)NC(=O)[C@H](C)NC(=O)[C@H](Cc2c[nH]cn2)NC1=O

% inhibition of neurite outgrowth (peptide 125 µg/mL) [4]: 64.9% | EC50 for inhibition of neurite outgrowth [4]: 128 µM | EC50 for inhibition of neurite outgrowth [10]: 80 µM
Binder: Ac-CHAVYC-NH2 (disulfide 1-6 (inferred)) [N-Ac-CHAVYC-NH2]

% inhibition of N-cadherin dependent neurite outgrowth (peptide 250 µg/mL) [5]: 14.8% | % Inhibition of neurite outgrowth, 250 µg/mL (rat neurons) [6]: 0%
Binder: Ac-CHGVSSC-NH2 (disulfide 1-7 (inferred)) [N-Ac-CHGVSSC-NH2]

Percent Inhibition of N-cadherin dependent neurite outgrowth (peptide 250 µg/ml) [1]: 15.7%
B4: N-Ac-S-CHAVC-S-NH2 (peptide)
peptide: Ac-SCHAVCS-NH2
modifications: disulfide 2-6
SMILES: CC(=O)N[C@@H](CO)C(=O)N[C@H]1CSSC[C@@H](C(=O)N[C@@H](CO)C(N)=O)NC(=O)[C@H](C(C)C)NC(=O)[C@H](C)NC(=O)[C@H](Cc2c[nH]cn2)NC1=O

% inhibition of N-cadherin dependent neurite outgrowth (peptide 250 µg/mL) [5]: -5.6% | % Inhibition of neurite outgrowth, 250 µg/mL (rat neurons) [6]: 0%
B5: N-Ac-CSHGVSSC-NH2 (peptide)
peptide: Ac-CSHGVSSC-NH2
modifications: disulfide 1-8
SMILES: CC(=O)N[C@H]1CSSC[C@@H](C(N)=O)NC(=O)[C@H](CO)NC(=O)[C@H](CO)NC(=O)[C@H](C(C)C)NC(=O)CNC(=O)[C@H](Cc2c[nH]cn2)NC(=O)[C@H](CO)NC1=O

Continued, binder first:

Binder: Ac-CHAVDINC-NH2 (disulfide 1-8 (inferred)) [N-Ac-CHAVDINC-NH2]
% Inhibition of N-Cadherin Response (peptide 125 µg/ml) [2]: 62% | % Inhibition of L1 Response (peptide 125 µg/ml) [3]: 1.7% | % inhibition of neurite outgrowth (peptide 125 µg/mL) [4]: 62% | EC50 for inhibition of neurite outgrowth [4]: 70 µM

Binder: Ac-CHAVDIC-NH2 (disulfide 1-7 (inferred)) [N-Ac-CHAVDIC-NH2]
% Inhibition of N-Cadherin Response (peptide 125 µg/ml) [2]: 88.3% | % Inhibition of L1 Response (peptide 125 µg/ml) [3]: 6% | % inhibition of neurite outgrowth (peptide 125 µg/mL) [4]: 88.3% | EC50 for inhibition of neurite outgrowth [4]: 60 µM

B2: H-CAHAVDC-NH2 (peptide)
peptide: H-CAHAVDC-NH2
modifications: disulfide 1-7
SMILES: CC(C)[C@@H]1NC(=O)[C@H](C)NC(=O)[C@H](Cc2c[nH]cn2)NC(=O)[C@H](C)NC(=O)[C@@H](N)CSSC[C@@H](C(N)=O)NC(=O)[C@H](CC(=O)O)NC1=O
% inhibition of N-cadherin dependent neurite outgrowth (peptide 250 µg/mL) [5]: 1.3% | Percent Inhibition of N-cadherin dependent neurite outgrowth (peptide 250 µg/ml) [8]: 1.3% | % Inhibition of neurite outgrowth, 250 µg/mL (rat neurons) [6]: 0%

Binder: H-CHAVC-NH2 (disulfide 1-5 (inferred)) [H-CHAVC-NH2]
% inhibition of N-cadherin dependent neurite outgrowth (peptide 250 µg/mL) [5]: 1.7% | Percent Inhibition of N-cadherin dependent neurite outgrowth (peptide 250 µg/ml) [8]: 1.7% | % Inhibition of neurite outgrowth, 250 µg/mL (rat neurons) [6]: 0%

Binder: Ac-CHAVCSS-NH2 (disulfide 1-5 (inferred)) [N-Ac-CHAVC-SS-NH2]
Percent Inhibition of N-cadherin dependent neurite outgrowth (peptide 250 µg/ml) [1]: 37.8% | EC50, decrease of electrical resistance across MDCK cell monolayer [9]: 430 µM

Binder: Ac-CFSHAVC-NH2 (disulfide 1-7 (inferred)) [N-Ac-CFSHAVC-NH2]
EC50, decrease of electrical resistance across MDCK cell monolayer [7]: 22 µM

Binder: Ac-CHAVCD-NH2 (disulfide 1-5 (inferred)) [N-Ac-CHAVC-D-NH2]
Percent Inhibition of N-cadherin dependent neurite outgrowth (peptide 250 µg/ml) [1]: 3.3% | EC50, decrease of electrical resistance across MDCK cell monolayer [9]: 470 µM

Binder: Ac-CHAVPC-NH2 (disulfide 1-6 (inferred)) [N-Ac-CHAVPC-NH2]
% inhibition of neurite outgrowth (peptide 125 µg/mL) [4]: 58% | EC50 for inhibition of neurite outgrowth [4]: 185 µM

Binder: Ac-CHAVDC-NH2 (disulfide 1-6 (inferred)) [N-Ac-CHAVDC-NH2]
% inhibition of N-cadherin dependent neurite outgrowth (peptide 250 µg/mL) [5]: 88.4% | % Inhibition of N-Cadherin Response (peptide 125 µg/ml) [2]: 77.1% | % Inhibition of L1 Response (peptide 125 µg/ml) [3]: 9.6% | % inhibition of neurite outgrowth (peptide 125 µg/mL) [4]: 77.1% | EC50 for inhibition of neurite outgrowth [4]: 93 µM | % Inhibition of neurite outgrowth, 250 µg/mL (rat neurons) [6]: 88%

Binder: Ac-CHAVDINGC-NH2 (disulfide 1-9 (inferred)) [N-Ac-CHAVDINGC-NH2]
% inhibition of neurite outgrowth (peptide 125 µg/mL) [4]: 1.5%

Binder: H-CAHAVDIC-NH2 (disulfide 1-8 (inferred)) [H-CAHAVDIC-NH2]
% inhibition of N-cadherin dependent neurite outgrowth (peptide 250 µg/mL) [5]: -3.7% | Percent Inhibition of N-cadherin dependent neurite outgrowth (peptide 250 µg/ml) [8]: -3.7% | % Inhibition of neurite outgrowth, 250 µg/mL (rat neurons) [6]: 0%

Binder: Ac-CHAVCT-NH2 (disulfide 1-5 (inferred)) [N-Ac-CHAVC-T-NH2]
Percent Inhibition of N-cadherin dependent neurite outgrowth (peptide 250 µg/ml) [1]: 23.7% | EC50, decrease of electrical resistance across MDCK cell monolayer [9]: 480 µM

Binder: Ac-CHAVCS-NH2 (disulfide 1-5 (inferred)) [N-Ac-CHAVC-S-NH2]
Percent Inhibition of N-cadherin dependent neurite outgrowth (peptide 250 µg/ml) [1]: 6.9% | EC50, decrease of electrical resistance across MDCK cell monolayer [9]: 490 µM

Binder: Ac-CHAVCE-NH2 (disulfide 1-5 (inferred)) [N-Ac-CHAVC-E-NH2]
Percent Inhibition of N-cadherin dependent neurite outgrowth (peptide 250 µg/ml) [1]: 32.5%

Binder: Ac-CHAVCY-NH2 (disulfide 1-5 (inferred)) [N-Ac-CHAVC-Y-NH2]
EC50, decrease of electrical resistance across MDCK cell monolayer [9]: 210 µM | EC50 for inhibition of neurite outgrowth [10]: 120 µM
